Read-outs that look alike come from different tables or passages of the source.
Tests used:
HBcAg [1] = target: T1, HBcAg (Hepatitis B virus genotype D subtype ayw, UniProt P03146); settings: for Lowest peptide concentration that prevented binding of mAb 4-2: peptide in the presence of mAb 4-2
Procedure: (§1) Variations of the characterization assays described above include competitive binding assays. […] Initial experiments were conducted by contacting binding partner to HBcAg prior to introducing the antibody. […] ID. […] ID. […] ID. […] ID. […] ID. […] ID.

HBcAg [2] = target: T1, HBcAg; settings: peptide contacted with HBcAg prior to antibody
From the text: (§2) One approach to rational drug design involves sequential amino acid deletion of a known binding partner starting from either the amino or carboxy termini. Amino-terminal deletions of the binding partners of SEQ. ID. Nos. 5 and 17 were made and these peptide fragments were joined to a support and analyzed for the ability to bind HBcAg. […] ID. […] The amino-terminal deletions of the peptide of SEQ. ID. […] The amino-terminal deletion products of the peptide of SEQ. ID. […] ID.
as §1

HBcAg [3] = target: T1, HBcAg; settings: for Binding to HBcAg (in words): support-bound peptides; for Binding of 10 μg/ml HBcAg to dilutions of support-bound peptide (in words): at low concentrations, TABLE 9
From the text: as §2
To determine whether a candidate binding partner bound to HBcAg and/or HbeAg, a multimeric support-based binding assay was performed. Accordingly, synthetic peptides corresponding to the VH and VL domains of the sequenced mAbs were passively adsorbed to 96 well microplates in serial dilutions starting at 200 μg/ml. The peptide coated plates were then incubated with HBcAg and HBeAg serially diluted in PBS-GT. The amount of HBcAg and HBeAg bound by the peptides was then detected using a mAb directed to an epitope common to HBcAg and HBeAg (See Sällberg et al., J General Virology 74:1335-1340 (1993), herein expressly incorportaed by reference in its entirety) diluted 1:3000 in PBS-GT. The quantity of bound mAb was determined by addition by peroxidase labeled rabbit anti-mouse IgG (P260, Dako A S, Denmark). The plates were developed by incubation with ortho-phenylene-diamine (Sigma) and the absorbance at 492 nm was evaluated.
The converse of an aspect of this experiment was also performed. That is, various dilutions of support-bound binding partners (SEQ. ID. Nos. 5, 16, 17, 28, and 29) were contacted with 10 μg/ml of HBcAg and binding was evaluated. ID.

HBeAg [4] = target: T2, HBeAg (Hepatitis B virus genotype D subtype ayw, UniProt P0C573); experiment: Binding of HBeAg to support-bound peptides (EIA); settings: antigen at concentrations as low as 0.67 μg/ml, TABLE 8
T2 construct: containing nine residues of pre-core and the 150 first residues of HBcAg; made in house
T2 sequence (P0C573 21-179): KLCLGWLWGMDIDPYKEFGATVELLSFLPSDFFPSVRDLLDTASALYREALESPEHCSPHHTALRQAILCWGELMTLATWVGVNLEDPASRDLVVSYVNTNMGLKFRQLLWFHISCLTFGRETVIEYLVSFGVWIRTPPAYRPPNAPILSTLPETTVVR

mAb specific for HSV gG2 = experiment: gG2 mAb binding to fusion peptide on solid phase; settings: for gG2 mAb binding to indicated antigen on solid phase: fusion peptide: no addition of fusion peptide in solution; for Binding of mAb specific for HSV gG2 to coated specificity exchanger (in words): specificity exchanger coated onto microtiterplates
From the text: (§3) ID. […] The specificity exchangers provided in SEQ. ID. […] Similarly, the specificity exchangers provided in SEQ. ID.

HBcAg [5] = target: T1, HBcAg; settings: for gG2 mAb binding to indicated antigen on solid phase: HBcAg: fusion peptide in solution 20 μg/well
Procedure: To evaluate the efficacy of the specificity exchangers described above, several binding assays using a mAb specific for HSV gG2 were conducted. In one assay, the various specificity exchangers were coated onto microtiterplates and were bound with the mAb specific for HSV gG2. […] ID. […] In another assay, HBcAg was coated onto microtiter plates, specificity exchanger was added (20 μg/well), and the binding of the mAb specific for HSV gG2 was determined. […] ID. […] In another binding assay, HBeAg was coated onto microtiter plates, specificity exchanger was added (20 μg/well), and the binding of the mAb specific for HSV gG2 was determined. […] ID. […] The characterization assays used to evaluate binding partners can also be used and/or modified for the analysis of the specificity exchangers.

HBeAg [6] = target: T2, HBeAg; experiment: Redirection of HSV gG2 mAb to HBeAg on solid phase by fusion peptide in solution; assay type: binding; settings: for gG2 mAb binding to indicated antigen on solid phase: HBeAg: fusion peptide in solution 20 μg/well
From the text: as §3

[7] = system: B cell - mediated antigen presentation of HBcAg to experienced T cells; experiment: Inhibition of B cell-mediated antigen presentation of HBcAg to experienced T cells; assay type: cell-based, Balb/c mice
Procedure: A characterization assay that was used to evaluate the ability of a binding partner to modulate a host immune system response to HBV was conducted as follows. Groups of Balb/c mice were immunized subcutaneously with 20 μg HBcAg. Ten days later, draining lymph nodes were harvested and experienced CD4^+ T cells were purified using anti-CD4 coated magnetic beads (Dynal A S, Oslo, Norway) according to the manufacturers instructions. Naïve B cells were obtained from syngeneic mice, which had not been immunized. These B cells were used as antigen presenting cells in the characterization assay.
The ability of the different mAbs and peptides to block B cell uptake and antigen presentation of HBcAg-peptides to HBcAg-specific CD4+ T cells was then tested in vitro. The cell populations were mixed at a B/T cell ratio of 1:5 and added at a final concentration of approximately 2.5×10^5 to 5.0×10^5 cells per well in a 96 well microplate. Approximately, 20 μg of HBcAg was preincubated with the binding partner. The binding partner mixtures were then added to the cells and the plates were incubated for 26 to 96 hours at 37° C. The effect of the binding partners on T cell proliferation was determined by monitoring [^3H] thymidine incorporation.

[8] = peptide 100 μg/ml in the presence of mAb 4-2
[9] = peptide 200 μg/ml in the presence of mAb 4-2
[10] = concentrations as low as 50 μg/ml
[11] = concentrations as low as 100 μg/ml
[12] = antigen at concentrations as low as 0.67 μg/ml, TABLE 8
[13] = specificity exchanger 20 μg/well

T1 sequence (P03146 whole entry): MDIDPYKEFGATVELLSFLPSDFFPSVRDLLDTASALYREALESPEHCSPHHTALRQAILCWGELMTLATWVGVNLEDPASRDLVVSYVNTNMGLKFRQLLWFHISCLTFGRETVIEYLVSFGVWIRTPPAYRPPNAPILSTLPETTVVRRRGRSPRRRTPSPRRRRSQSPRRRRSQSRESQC

CKASGYSFTGYNMNWVKQSH (Synthetically prepared amino acid sequence) [Peptide 26]
Competition with mAb 4-2 for binding to HBcAg (in words) (HBcAg [1]; [8]): effectively competed with mAb 4-2 | Competition with mAb 4-2 for binding to HBcAg (in words) (HBcAg [1]; [9]): significantly inhibited | Inhibition of mAb 4-2 binding to HBcAg (in words) (HBcAg [2]; [10]): appreciably reduced binding of mAb 4-2 | Inhibition of mAb 4-2 binding to HBcAg (in words) (HBcAg [2]; [11]): effectively reduced binding of the antibody | Inhibition of mAb 4-2 binding to HBcAg (in words) (HBcAg [2]; peptide 200 μg/ml): able to inhibit binding of mAb 4-2 | Binding to HBcAg (in words) (HBcAg [3]; TABLE 7): high affinity | Binding to HBcAg (in words) (HBcAg [3]; [12]): appreciable binding | Binding to HBeAg (in words) (HBeAg [4]): appreciable binding

ISCRASQSVSTSSYSYMHWY (Synthetically prepared amino acid sequence) [Peptide 14]
Inhibition of mAb 4-2 binding to HBcAg (in words) (HBcAg [2]; peptide 200 μg/ml): able to inhibit binding of mAb 4-2 | Binding of 10 μg/ml HBcAg to dilutions of support-bound peptide (in words) (HBcAg [3]): appreciable binding at low concentrations | Binding to HBcAg (in words) (HBcAg [3]; TABLE 7): high affinity | Binding to HBcAg (in words) (HBcAg [3]; [12]): appreciable binding | Binding to HBeAg (in words) (HBeAg [4]): appreciable binding

KLSCKASGYIFTSEHRGGPEE [SEQ. ID. No. 70]
gG2 mAb binding to indicated antigen on solid phase: fusion peptide (mAb specific for HSV gG2): 0.040 | gG2 mAb binding to indicated antigen on solid phase: HBcAg (HBcAg [5]): 0.020 | gG2 mAb binding to indicated antigen on solid phase: HBeAg (HBeAg [6]): 0.022

KLSCKASGYIFTSHRGGPEEF [SEQ. ID. No. 71]
gG2 mAb binding to indicated antigen on solid phase: fusion peptide (mAb specific for HSV gG2): 1.622 | Binding of mAb specific for HSV gG2 to coated specificity exchanger (in words) (mAb specific for HSV gG2): appreciably bound the mAb | gG2 mAb binding to indicated antigen on solid phase: HBcAg (HBcAg [5]): 0.550 | Binding to immobilized HBcAg allowing binding of HSV gG2 mAb (in words) (HBcAg [5]; [13]): appreciably bound the immobilized HBcAg | gG2 mAb binding to indicated antigen on solid phase: HBeAg (HBeAg [6]): 0.638 | Binding to immobilized HBeAg allowing binding of HSV gG2 mAb (in words) (HBeAg [6]; [13]): appreciably bound the immobilized HBeAg

KLSCKASGYIFTSRGGPEEFE [SEQ. ID. No. 72]
gG2 mAb binding to indicated antigen on solid phase: fusion peptide (mAb specific for HSV gG2): 0.062 | gG2 mAb binding to indicated antigen on solid phase: HBcAg (HBcAg [5]): 0.016 | gG2 mAb binding to indicated antigen on solid phase: HBeAg (HBeAg [6]): 0.040

LAVSLGQRATISCRASQSVS (Synthetically prepared amino acid sequence) [Peptide 13]
Competition with mAb 4-2 for binding to HBcAg (in words) (HBcAg [1]; [8]): effectively competed with mAb 4-2 | Competition with mAb 4-2 for binding to HBcAg (in words) (HBcAg [1]; [9]): significantly inhibited | Lowest peptide concentration that prevented binding of mAb 4-2 (HBcAg [1]): 6.25 µg/mL | Inhibition of mAb 4-2 binding to HBcAg (in words) (HBcAg [2]; peptide 200 μg/ml): able to inhibit binding of mAb 4-2 | Binding of 10 μg/ml HBcAg to dilutions of support-bound peptide (in words) (HBcAg [3]): appreciable binding at low concentrations | Binding to HBcAg (in words) (HBcAg [3]; TABLE 7): high affinity | Binding to HBcAg (in words) (HBcAg [3]; [12]): appreciable binding | Binding to HBeAg (in words) (HBeAg [4]): appreciable binding

QQKPGQPPKLLIKYASNLES (Synthetically prepared amino acid sequence) [Peptide 16]
gG2 mAb binding to indicated antigen on solid phase: HBcAg (HBcAg [5]): 0.038 | gG2 mAb binding to indicated antigen on solid phase: HBeAg (HBeAg [6]): 0.022 | Inhibition of B cell mediated antigen presentation of HBcAg to specific CD4+ T cells (in words) [7]: no inhibition | cpm ([3H] thymidine incorporation, T cell proliferation) ([7]; T + B cells, 20 μg HBcAg preincubated with inhibitor, positive control 573, background 110): 572 cpm | % inhibition of APC ([7]; T + B cells, 20 μg HBcAg, calculated from cpm versus positive control and background proliferation): 0%

VKLSCKASGYIFTSEHRGGPE [SEQ. ID. No. 73]
gG2 mAb binding to indicated antigen on solid phase: fusion peptide (mAb specific for HSV gG2): 0.060 | gG2 mAb binding to indicated antigen on solid phase: HBcAg (HBcAg [5]): 0.038 | gG2 mAb binding to indicated antigen on solid phase: HBeAg (HBeAg [6]): 0.029

VKLSCKASGYIFTSGGPEEFE [SEQ. ID. No. 76]
gG2 mAb binding to indicated antigen on solid phase: fusion peptide (mAb specific for HSV gG2): 0.018 | gG2 mAb binding to indicated antigen on solid phase: HBcAg (HBcAg [5]): 0.025 | gG2 mAb binding to indicated antigen on solid phase: HBeAg (HBeAg [6]): 0.024

VKLSCKASGYIFTSHRGGPEE [SEQ. ID. No. 75]
gG2 mAb binding to indicated antigen on solid phase: fusion peptide (mAb specific for HSV gG2): 0.213 | Binding of mAb specific for HSV gG2 to coated specificity exchanger (in words) (mAb specific for HSV gG2): appreciably bound the mAb | gG2 mAb binding to indicated antigen on solid phase: HBcAg (HBcAg [5]): 0.037 | gG2 mAb binding to indicated antigen on solid phase: HBeAg (HBeAg [6]): 0.032

VKPGASVKISCKASGYSFTG (Synthetically prepared amino acid sequence) [Peptide 25]
Competition with mAb 4-2 for binding to HBcAg (in words) (HBcAg [1]; [8]): effectively competed with mAb 4-2 | Competition with mAb 4-2 for binding to HBcAg (in words) (HBcAg [1]; [9]): significantly inhibited | Lowest peptide concentration that prevented binding of mAb 4-2 (HBcAg [1]): 12.5 µg/mL | Inhibition of mAb 4-2 binding to HBcAg (in words) (HBcAg [2]; [11]): effectively reduced binding of the antibody | Inhibition of mAb 4-2 binding to HBcAg (in words) (HBcAg [2]; peptide 200 μg/ml): able to inhibit binding of mAb 4-2 | Binding of 10 μg/ml HBcAg to dilutions of support-bound peptide (in words) (HBcAg [3]): appreciable binding at low concentrations | Binding to HBcAg (in words) (HBcAg [3]; TABLE 7): high affinity | Binding to HBcAg (in words) (HBcAg [3]; [12]): appreciable binding | Binding to HBeAg (in words) (HBeAg [4]): appreciable binding

VKPGASVKLSCKASGYIFTS (Synthetically prepared amino acid sequence) [Peptide 2]
Competition with mAb 4-2 for binding to HBcAg (in words) (HBcAg [1]; [8]): effectively competed with mAb 4-2 | Competition with mAb 4-2 for binding to HBcAg (in words) (HBcAg [1]; [9]): significantly inhibited | Lowest peptide concentration that prevented binding of mAb 4-2 (HBcAg [1]): 6.25 µg/mL | Inhibition of mAb 4-2 binding to HBcAg (in words) (HBcAg [2]; [10]): appreciably reduced binding of mAb 4-2 | Inhibition of mAb 4-2 binding to HBcAg (in words) (HBcAg [2]; [11]): effectively reduced binding of the antibody | Inhibition of mAb 4-2 binding to HBcAg (in words) (HBcAg [2]; peptide 200 μg/ml): able to inhibit binding of mAb 4-2 | Binding of 10 μg/ml HBcAg to dilutions of support-bound peptide (in words) (HBcAg [3]): appreciable binding at low concentrations | Binding to HBcAg (in words) (HBcAg [3]; TABLE 7): high affinity | Binding to HBcAg (in words) (HBcAg [3]; [12]): appreciable binding | Binding to HBeAg (in words) (HBeAg [4]): appreciable binding

— patent publication US20060020110A1, “Synthetic peptides that bind to the hepatitis B virus core and E antigens” (priority 2000, published 2006)
